Assay results from US20010010923A1, “MODIFIED CARBOXYPEPTIDASE” (priority 1997, published 2001).
Entries after “also recorded” stand apart in the source; their conditions may differ. Marks after values point to notes of the source that are not given here.

Legend:
[1] = Transpeptidation of FA-Ala-Xaa-OH with H-Gly-NH2, Table 2; type: biochemical; details: for Fraction of aminolysis (fa), P1' Ala: FA-Ala-Ala-OH 0.2 mM; for Fraction of aminolysis (fa), P1' Ala / Fraction of aminolysis (fa), P1' Leu / Fraction of aminolysis (fa), P1' Met / Fraction of aminolysis (fa), P1' Phe / Fraction of aminolysis (fa), P1' Val: 1.9 M H-Gly-NH2, pH 7.5, room temperature; for Fraction of aminolysis (fa), P1' Leu: FA-Ala-Leu-OH 0.2 mM; for Fraction of aminolysis (fa), P1' Met: FA-Ala-Met-OH 0.2 mM; for Fraction of aminolysis (fa), P1' Phe: FA-Ala-Phe-OH 0.2 mM; for Fraction of aminolysis (fa), P1' Val: FA-Ala-Val-OH 0.2 mM; for fraction of aminolysis compared to wild type, in words: larger, hydrophobic leaving group such as leucine
Protocol: (§1) Transamidation reactions were carried out generally as described in PCT Application WO 95/20039. In general, the method included dissolving the nucleophile (H-Leu-NH2, unless otherwise indicated) in 50 mM HEPES, 5 mM EDTA and adjusting the pH to 7.5, 5 μl of peptide substrate (8 mM Bz-G-A-R-A-R-A-OH, unless otherwise indicated, in methanol) was added to 190 μl nucleophile solution followed by 5 μl enzyme, resulting in a substrate concentration of 0.2 mM.
(§2) During the reaction, 20 μl aliquots were removed from the reaction mixture and added to 50 μl 1% trifluoroacetic acid to quench the reaction. The reactant composition was determined by HPLC using a Waters HPLC equipped with a C-18 Waters Novapac 4μ reverse phase column and various gradients of acetonitrile in 0.1% trifluoroacetic acid. The separation was monitored at 254 nm allowing the direct quantification of the products from the integrated peak areas. The composition of the reaction mixture was determined at least twvice during the reaction, the first when 20-50% (preferably 35%) of the substrate had been consumed in the reaction and the second time when 50-90% (preferably 80%) of the peptide substrate had been consumed.
(§3) The fraction of aminolysis (fa) was expressed as the ratio between the formed aminolysis product and the sum of all products formed. Unconsumed substrate was disregarded in the calculations.
Site specific mutagenesis was performed as described for Example 1 to produce the S1 mutants used below.
Transamidation reactions were performed as described for Example 1.

[2] = Transpeptidation of FA-Ala-OBzl with H-Leu-NH2, Table 3; type: biochemical; details: FA-Ala-OBzl 0.2 mM, pH 7.5; for fa: H-Leu-NH2; for KN(app): nucleophile H-Leu-NH2 concentration at which fa is half of maximum
Protocol: as §1, §2, §3
Site specific mutagenesis was performed as described in Example 1 to produce the specific substitution mutants described below. Transamidation reactions were performed as described for Example 1.
In table 3, below, KN(app) represents the nucleophile concentration at which fa is half of the maximum value (a measure for the dissociation constant of the nucleophile). famax is the highest possible fa obtained at saturation of the enzyme with the nucleophile.
KN(app) indicates the concentration at which famax/2 is reached and thus describes the apparent binding constant of the nucleophile. Because the competing hydrolysis reaction is thought to occur while the leaving group remains attached to the to the acyl-enzyme intermediate, a low KN(app) is preferred.

Row | Molecule | Fraction of aminolysis (fa), P1' Ala [1] | Fraction of aminolysis (fa), P1' Leu [1] | Fraction of aminolysis (fa), P1' Met [1] | Fraction of aminolysis (fa), P1' Phe [1] | Fraction of aminolysis (fa), P1' Val [1] | fraction of aminolysis compared to wild type, in words [1] | fa [2] | KN(app) [2]
1 | M398N: carboxypeptidase Y S1' mutant, substitution M398N (protein, UniProt P00729 112-532, looked up, variant M398N) Carboxypeptidase Y: KIKDPKILGIDPNVTQYTGYLDVEDEDKHFFFWTFESRNDPAKDPVILWLNGGPGCSSLTGLFFELGPSSIGPDLKPIGNPYSWNSNATVIFLDQPVNVGFSYSGSSGVSNTVAAGKDVYNFLELFFDQFPEYVNKGQDFHIAGESYAGHYIPVFASEILSHKDRNFNLTSVLIGNGLTDPLTQYNYYEPMACGEGGEPSVLPSEECSAMEDSLERCLGLIESCYDSQSVWSCVPATIYCNNAQLAPYQRTGRNVYDIRKDCEGGNLCYPTLQDIDDYLNQDYVKEAVGAEVDHYESCNFDINRNFLFAGDWMKPYHTAVTDLLNQDLPILVYAGDKDFICNWLGNKAWTDVLPWKYDEEFASQKVRNWTASITDEVAGEVKSYKHFTYLRVFNGGHNVPFDVPENALSMVNEWIHGGFSL | 0.92 | 0.36 | 0.70 | 0.11 | 0.52 | improvement in fraction of aminolysis obtained; also recorded: enhanced transpeptidation | 0.83^a | 1.2^c mM
2 | T60Y: carboxypeptidase Y S1' mutant, substitution T60Y (protein, UniProt P00729 112-532, looked up, variant T60Y) Carboxypeptidase Y: KIKDPKILGIDPNVTQYTGYLDVEDEDKHFFFWTFESRNDPAKDPVILWLNGGPGCSSLYGLFFELGPSSIGPDLKPIGNPYSWNSNATVIFLDQPVNVGFSYSGSSGVSNTVAAGKDVYNFLELFFDQFPEYVNKGQDFHIAGESYAGHYIPVFASEILSHKDRNFNLTSVLIGNGLTDPLTQYNYYEPMACGEGGEPSVLPSEECSAMEDSLERCLGLIESCYDSQSVWSCVPATIYCNNAQLAPYQRTGRNVYDIRKDCEGGNLCYPTLQDIDDYLNQDYVKEAVGAEVDHYESCNFDINRNFLFAGDWMKPYHTAVTDLLNQDLPILVYAGDKDFICNWLGNKAWTDVLPWKYDEEFASQKVRNWTASITDEVAGEVKSYKHFTYLRVFNGGHMVPFDVPENALSMVNEWIHGGFSL | 0.90 | 0.66 | 0.58 | 0.51 | 0.43 | improvement in fraction of aminolysis obtained; also recorded: most dramatic improvement; also recorded: most effective at increasing the fraction of aminolysis | 0.95^a | –
3 | T60A: carboxypeptidase Y S1' mutant, substitution T60A (protein, UniProt P00729 112-532, looked up, variant T60A) Carboxypeptidase Y: KIKDPKILGIDPNVTQYTGYLDVEDEDKHFFFWTFESRNDPAKDPVILWLNGGPGCSSLAGLFFELGPSSIGPDLKPIGNPYSWNSNATVIFLDQPVNVGFSYSGSSGVSNTVAAGKDVYNFLELFFDQFPEYVNKGQDFHIAGESYAGHYIPVFASEILSHKDRNFNLTSVLIGNGLTDPLTQYNYYEPMACGEGGEPSVLPSEECSAMEDSLERCLGLIESCYDSQSVWSCVPATIYCNNAQLAPYQRTGRNVYDIRKDCEGGNLCYPTLQDIDDYLNQDYVKEAVGAEVDHYESCNFDINRNFLFAGDWMKPYHTAVTDLLNQDLPILVYAGDKDFICNWLGNKAWTDVLPWKYDEEFASQKVRNWTASITDEVAGEVKSYKHFTYLRVFNGGHMVPFDVPENALSMVNEWIHGGFSL | 0.91 | 0.32 | 0.16 | 0.12 | 0.44 | improvement in fraction of aminolysis obtained; also recorded: most effective at increasing the fraction of aminolysis | 0.92^a | –
4 | M398A: carboxypeptidase Y S1' mutant, substitution M398A (protein, UniProt P00729 112-532, looked up, variant M398A) Carboxypeptidase Y: KIKDPKILGIDPNVTQYTGYLDVEDEDKHFFFWTFESRNDPAKDPVILWLNGGPGCSSLTGLFFELGPSSIGPDLKPIGNPYSWNSNATVIFLDQPVNVGFSYSGSSGVSNTVAAGKDVYNFLELFFDQFPEYVNKGQDFHIAGESYAGHYIPVFASEILSHKDRNFNLTSVLIGNGLTDPLTQYNYYEPMACGEGGEPSVLPSEECSAMEDSLERCLGLIESCYDSQSVWSCVPATIYCNNAQLAPYQRTGRNVYDIRKDCEGGNLCYPTLQDIDDYLNQDYVKEAVGAEVDHYESCNFDINRNFLFAGDWMKPYHTAVTDLLNQDLPILVYAGDKDFICNWLGNKAWTDVLPWKYDEEFASQKVRNWTASITDEVAGEVKSYKHFTYLRVFNGGHAVPFDVPENALSMVNEWIHGGFSL | 0.93 | 0.84 | 0.89 | 0.84 | 0.65 | improvement in fraction of aminolysis obtained; also recorded: enhanced transpeptidation | 0.93^a | 0.83^a mM
5 | T60D: carboxypeptidase Y S1' mutant, substitution T60D (protein, UniProt P00729 112-532, looked up, variant T60D) Carboxypeptidase Y: KIKDPKILGIDPNVTQYTGYLDVEDEDKHFFFWTFESRNDPAKDPVILWLNGGPGCSSLDGLFFELGPSSIGPDLKPIGNPYSWNSNATVIFLDQPVNVGFSYSGSSGVSNTVAAGKDVYNFLELFFDQFPEYVNKGQDFHIAGESYAGHYIPVFASEILSHKDRNFNLTSVLIGNGLTDPLTQYNYYEPMACGEGGEPSVLPSEECSAMEDSLERCLGLIESCYDSQSVWSCVPATIYCNNAQLAPYQRTGRNVYDIRKDCEGGNLCYPTLQDIDDYLNQDYVKEAVGAEVDHYESCNFDINRNFLFAGDWMKPYHTAVTDLLNQDLPILVYAGDKDFICNWLGNKAWTDVLPWKYDEEFASQKVRNWTASITDEVAGEVKSYKHFTYLRVFNGGHMVPFDVPENALSMVNEWIHGGFSL | 0.87 | 0.25 | 0.15 | 0.15 | 0.53 | improvement in fraction of aminolysis obtained | 0.94^a | 1.5^c mM
6 | M398G: carboxypeptidase Y S1' mutant, substitution M398G (protein, UniProt P00729 112-532, looked up, variant M398G) Carboxypeptidase Y: KIKDPKILGIDPNVTQYTGYLDVEDEDKHFFFWTFESRNDPAKDPVILWLNGGPGCSSLTGLFFELGPSSIGPDLKPIGNPYSWNSNATVIFLDQPVNVGFSYSGSSGVSNTVAAGKDVYNFLELFFDQFPEYVNKGQDFHIAGESYAGHYIPVFASEILSHKDRNFNLTSVLIGNGLTDPLTQYNYYEPMACGEGGEPSVLPSEECSAMEDSLERCLGLIESCYDSQSVWSCVPATIYCNNAQLAPYQRTGRNVYDIRKDCEGGNLCYPTLQDIDDYLNQDYVKEAVGAEVDHYESCNFDINRNFLFAGDWMKPYHTAVTDLLNQDLPILVYAGDKDFICNWLGNKAWTDVLPWKYDEEFASQKVRNWTASITDEVAGEVKSYKHFTYLRVFNGGHGVPFDVPENALSMVNEWIHGGFSL | 0.93 | 0.59 | 0.83 | 0.66 | 0.42 | improvement in fraction of aminolysis obtained | 0.95^a | 1.6^a mM
